The values below come from patent US20230167164A1.

The target of this assay is IFN-γ receptor (UniProt P15260). Briefly: cell-based or functional assay.
Sequence of IFN-γ receptor (P15260 18-489 limits assumed, chain 1 of 2): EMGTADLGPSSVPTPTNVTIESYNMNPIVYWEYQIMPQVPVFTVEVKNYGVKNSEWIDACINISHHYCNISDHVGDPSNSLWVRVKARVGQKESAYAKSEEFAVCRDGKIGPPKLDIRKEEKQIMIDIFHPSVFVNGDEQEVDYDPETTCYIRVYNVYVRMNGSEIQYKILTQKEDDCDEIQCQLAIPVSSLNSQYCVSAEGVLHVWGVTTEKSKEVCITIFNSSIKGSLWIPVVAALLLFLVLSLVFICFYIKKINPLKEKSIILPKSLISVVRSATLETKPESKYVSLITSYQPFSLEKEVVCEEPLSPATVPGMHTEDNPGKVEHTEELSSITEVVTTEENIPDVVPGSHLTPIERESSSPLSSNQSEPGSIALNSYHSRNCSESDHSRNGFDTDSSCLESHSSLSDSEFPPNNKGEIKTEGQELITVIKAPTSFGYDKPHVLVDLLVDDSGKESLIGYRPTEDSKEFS
Sequence of IFN-γ receptor (P38484 22-337 limits assumed, chain 2 of 2, further chain): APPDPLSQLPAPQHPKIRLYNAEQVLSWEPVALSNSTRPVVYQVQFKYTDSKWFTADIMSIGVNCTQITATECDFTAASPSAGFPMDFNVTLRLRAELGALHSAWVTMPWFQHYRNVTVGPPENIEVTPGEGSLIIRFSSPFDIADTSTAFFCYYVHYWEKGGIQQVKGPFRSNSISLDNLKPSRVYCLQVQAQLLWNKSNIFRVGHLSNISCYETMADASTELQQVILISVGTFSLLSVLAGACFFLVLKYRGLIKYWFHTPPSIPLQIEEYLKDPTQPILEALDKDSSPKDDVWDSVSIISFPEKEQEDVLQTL

In turn, “recombinant IFN-γ (free state) (from UniProt P01579 24-166) (ligand)” gave a PD-L1 expression induced on HEK-CD4-IFN-γ cells, MFI of anti-PD-L1 APC staining of 67 MFI and a PD-L1 expression induced on HEK-IFN-γ cells, MFI of anti-PD-L1 APC staining of 75 MFI.
